These results are taken from publication PMC9918737.

For experiment [1], the target named is ubH2B mono-nucleosome (H2B mono-ubiquitinated at lysine 120) (UniProt P0C0S8). Description: single-molecule magnetic tweezers (force-jump); 409-bp nucleosome tethered between coverslip and bead, 83 nM FACT in the flow cell, force jumps between 0.1 pN and 11 pN (H2B-nucleosome) or 6 pN (ubH2B-nucleosome), Kd from the ratio of free to FACT-bound states, 25 °C.
Experiment [2] has as its target unmodified H2B mono-nucleosome (UniProt P0C0S8).
Experiment [3] has as its target ubH2B mono-nucleosome (H2B mono-ubiquitinated at lysine 120) (UniProt P0C0S8).

Some results are limits rather than exact numbers.

Usually Kd stands for the constant that tells how readily two partners part at equilibrium. “recombinant FACT complex (Flag-SPT16 and His6-SSRP1) (from UniProt Q9Y5B9 1-1047; Q08945 1-709)”: the Kd in experiment [1] stood at 8 nM. Also, the tension at which the H2B-nucleosome is completely disrupted in the presence of FACT (magnetic tweezers, repeated stretching) in experiment [2] is < 10 pN. Moreover, in experiment [3], the rupture force of the inner DNA wrap of ubH2B-nucleosome in the presence of FACT (magnetic tweezers) was found to be 20 pN and the rupture force of the outer DNA wrap of ubH2B-nucleosome in the presence of FACT (magnetic tweezers) is 10 pN.
